Data: US20140087995A1 (published 2014)
Numbered stars: 1 amine (or outer) side, 2 acyl side, 3 side chain; on linkers, the order of the positions; unused ones are H or OH. Bridge positions count the residues as written; N and C are the ends. Side chains are listed from the residue outwards. Ends that are not written are not given here. * marks the point of attachment. C20 diacid = O=C(O)CCCCCCCCCCCCCCCCCCC(=O)*; γGlu = O=C(O)[C@H](CCC(=O)[*:2])N[*:1]

T1: human calcitonin receptor (human, UniProt P30988 25-474)
T1 sequence (looked up): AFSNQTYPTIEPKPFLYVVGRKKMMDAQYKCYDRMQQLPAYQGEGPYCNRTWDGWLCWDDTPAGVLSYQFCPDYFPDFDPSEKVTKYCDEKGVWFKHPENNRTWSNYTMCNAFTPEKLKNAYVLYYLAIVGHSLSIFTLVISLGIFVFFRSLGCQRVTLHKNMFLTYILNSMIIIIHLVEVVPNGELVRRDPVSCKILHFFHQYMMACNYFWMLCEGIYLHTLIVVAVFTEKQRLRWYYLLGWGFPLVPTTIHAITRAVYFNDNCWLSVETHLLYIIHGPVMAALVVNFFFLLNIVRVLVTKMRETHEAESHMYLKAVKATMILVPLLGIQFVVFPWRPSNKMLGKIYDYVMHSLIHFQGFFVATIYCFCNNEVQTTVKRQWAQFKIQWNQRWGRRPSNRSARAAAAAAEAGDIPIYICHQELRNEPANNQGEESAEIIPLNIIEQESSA

T2: human amylin receptor (amylin 3(a) receptor: human calcitonin receptor co-expressed with RAMP-3) (human, UniProt P30988 25-474; O60896 24-148, limits assumed)
T2 sequence (looked up) 1: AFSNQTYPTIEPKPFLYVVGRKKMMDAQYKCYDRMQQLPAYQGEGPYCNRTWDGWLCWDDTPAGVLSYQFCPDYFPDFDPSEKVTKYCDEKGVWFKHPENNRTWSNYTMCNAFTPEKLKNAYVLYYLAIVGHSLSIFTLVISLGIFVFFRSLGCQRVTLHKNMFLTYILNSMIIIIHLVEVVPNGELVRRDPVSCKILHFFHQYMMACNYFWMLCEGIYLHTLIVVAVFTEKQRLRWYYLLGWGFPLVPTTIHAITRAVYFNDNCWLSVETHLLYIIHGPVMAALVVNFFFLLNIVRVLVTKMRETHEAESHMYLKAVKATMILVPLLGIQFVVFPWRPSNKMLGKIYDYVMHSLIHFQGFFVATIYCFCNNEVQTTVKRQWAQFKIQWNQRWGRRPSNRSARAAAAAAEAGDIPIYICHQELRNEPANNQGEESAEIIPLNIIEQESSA
T2 sequence (looked up) 2: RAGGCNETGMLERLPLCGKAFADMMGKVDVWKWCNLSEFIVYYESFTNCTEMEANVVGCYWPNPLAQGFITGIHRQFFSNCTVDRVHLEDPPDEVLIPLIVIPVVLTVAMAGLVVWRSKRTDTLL

T3: human calcitonin receptor (human, UniProt P30988 25-474)
T3 construct: whole, on cells; Assayed as cell membranes of BHK tk'ts 13 cells stably transfected with the human calcitonin receptor (Assay VII); also called hCTR; hCT
T3 sequence (looked up): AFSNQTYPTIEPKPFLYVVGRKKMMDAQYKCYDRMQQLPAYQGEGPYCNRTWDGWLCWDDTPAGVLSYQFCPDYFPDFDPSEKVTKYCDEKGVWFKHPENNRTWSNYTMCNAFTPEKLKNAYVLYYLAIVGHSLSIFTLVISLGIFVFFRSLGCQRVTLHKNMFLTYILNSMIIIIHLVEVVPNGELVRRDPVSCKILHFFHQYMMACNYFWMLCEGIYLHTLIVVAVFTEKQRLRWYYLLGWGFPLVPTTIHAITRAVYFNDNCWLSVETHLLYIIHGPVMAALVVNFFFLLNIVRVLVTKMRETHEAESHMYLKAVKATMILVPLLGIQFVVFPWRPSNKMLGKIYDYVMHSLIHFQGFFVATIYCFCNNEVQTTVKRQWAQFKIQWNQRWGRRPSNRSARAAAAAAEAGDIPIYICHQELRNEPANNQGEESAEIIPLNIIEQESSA

T4: human amylin receptor (amylin 3(a) receptor: human calcitonin receptor co-expressed with RAMP-3) (human, UniProt P30988 25-474; O60896 24-148, limits assumed)
T4 construct: whole, on cells; Assayed as cell membranes of BHK570 Amylin 3(a)/CRE-luc cells (Assay V); also called hAmylin-R; hAmylinR
T4 sequence (looked up) 1: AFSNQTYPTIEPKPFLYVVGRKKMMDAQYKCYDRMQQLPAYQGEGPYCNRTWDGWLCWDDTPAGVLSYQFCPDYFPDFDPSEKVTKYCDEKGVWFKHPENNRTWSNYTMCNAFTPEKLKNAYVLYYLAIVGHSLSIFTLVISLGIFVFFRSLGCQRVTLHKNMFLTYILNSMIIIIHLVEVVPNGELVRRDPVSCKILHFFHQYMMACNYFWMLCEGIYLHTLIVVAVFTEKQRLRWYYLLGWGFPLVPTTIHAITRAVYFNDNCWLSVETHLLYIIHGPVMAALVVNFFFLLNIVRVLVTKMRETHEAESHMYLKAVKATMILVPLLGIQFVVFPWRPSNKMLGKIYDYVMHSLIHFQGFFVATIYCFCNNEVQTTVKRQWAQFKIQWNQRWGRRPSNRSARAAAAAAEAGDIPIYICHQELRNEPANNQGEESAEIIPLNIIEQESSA
T4 sequence (looked up) 2: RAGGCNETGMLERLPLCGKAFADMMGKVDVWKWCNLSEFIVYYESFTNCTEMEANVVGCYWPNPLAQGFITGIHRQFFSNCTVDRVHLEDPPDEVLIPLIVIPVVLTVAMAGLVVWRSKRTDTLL


Tests used:
[1] = target: T1, human calcitonin receptor; assay: cell-based or functional assay
[2] = target: T2, human amylin receptor (amylin 3(a) …); assay: cell-based or functional assay
[3] = target: T2, human amylin receptor (amylin 3(a) …); assay: SPA competition against 125I-rat amylin, membranes of Amylin 3(a)/CRE-luc BHK cells (Assay V)
Protocol: (§1) The binding assay was performed using scintillation proximity assay (SPA) beads (RPNQ0001) from PerkinElmer and cell membranes from the Amylin 3(a)/CRE-luc cells (as described in Assay (II)) were used. Membranes were prepared in the following way; the cells were rinsed with PBS and incubated with Versene for approximately 5 min before harvesting. The cells were flushed with PBS and the cell-suspension was centrifuged for 5 min at 1000 rpm. Cells were homogenized (ultrathurrax) in a buffer containing 20 mM Na-HEPES and 10 mM EDTA (pH 7.4) and centrifuged at 20.000 rpm for 15 min. The resulting pellet was resuspended, homogenized and centrifuged (20.000 rpm, 15 min) in a buffer containing 20 mM Na-HEPES and 0.1 mM EDTA (pH 7.4, buffer 2). The resulting pellet was resuspended in buffer 2 and protein concentration was measured (BCA protein Assay, Pierce). The homogenate was kept cold during the whole procedure. The membranes were kept at −80° C. until use. The assay was performed in a 384 well Optiplate (PerkinElmer) in a total volume of 40 ul. Membranes were mixed with SPA beads. Final concentration of membranes 35 ng/μL final and SPA beads was 0.05 mg/well. […] Samples were analyzed on TopCounter™ (Packard). The IC₅₀ was calculated using (one site binding competition analysis) GraphPad Prism5 as a measure of receptor affinity.

[4] = target: T3, human calcitonin receptor; assay: IC50 at hCTR divided by IC50 at hAmylin-R (SPA competition assays V and VII)
How it was run: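 IC₅₀ values were derived by one-site competition analysis of SPA counts. Cell membranes (35 ng/μL) with SPA beads were incubated with test compounds for 120 min at 25° C in Hepes buffer, pH 7.4, containing CaCl2, MgCl₂, OA and Tween20.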

[5] = target: T4, human amylin receptor (amylin 3(a) …); assay: SPA competition vs 125I-rat amylin, membranes of BHK cells with human amylin 3(a) receptor (Assay V)
Protocol: as §1

[6] = target: T3, human calcitonin receptor; assay: SPA competition vs 125I-calcitonin, membranes of BHK cells with human calcitonin receptor (Assay VII)
How it was run: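 BHK hCTR membranes 35 ng/μL + SPA beads 0.05 mg/well; buffer 50 mM Hepes pH 7.4, 1 mM CaCl2, 5 mM MgCl₂, 0.1% OA, 0.02% Tween20. 120 min, 25° C., shaking. Scintillation count; IC50 by one-site binding competition.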

Ratio hCT/hAmylin funct. (hCTR EC50 against hAmylin-R EC50) [1] | hCTR funct. EC50 [1] [nM] | hAmylin-R funct. EC50 [2] [nM] | IC50 [3] [nM] | Ratio hCT/hAmylin binding [4] | IC50 [5] [nM] | IC50 [6] [nM] | Binder
5.2 | 0.354 | 0.069 | 0.09 |  |  |  | K([γGlu-C20 diacid])CNTATCATQRLAHFLRHSSPNFGAIPSSTNVGPNTY-NH2 (disulfide 2-7; N-terminus assumed; SMILES CC[C@H](C)[C@H](NC(=O)[C@H](C)NC(=O)CNC(=O)[C@H](Cc1ccccc1)NC(=O)[C@H](CC(N)=O)NC(=O)[C@@H]1CCCN1C(=O)[C@H](CO)NC(=O)[C@H](CO)NC(=O)[C@H](Cc1c[nH]cn1)NC(=O)[C@H](CCCNC(=N)N)NC(=O)[C@H](CC(C)C)NC(=O)[C@H](Cc1ccccc1)NC(=O)[C@H](Cc1c[nH]cn1)NC(=O)[C@H](C)NC(=O)[C@H](CC(C)C)NC(=O)[C@H](CCCNC(=N)N)NC(=O)[C@H](CCC(N)=O)NC(=O)[C@@H](NC(=O)[C@H](C)NC(=O)[C@@H]1CSSC[C@H](NC(=O)[C@@H](N)CCCCNC(=O)CC[C@H](NC(=O)CCCCCCCCCCCCCCCCCCC(=O)O)C(=O)O)C(=O)N[C@@H](CC(N)=O)C(=O)N[C@@H]([C@@H](C)O)C(=O)N[C@@H](C)C(=O)N[C@@H]([C@@H](C)O)C(=O)N1)[C@@H](C)O)C(=O)N1CCC[C@H]1C(=O)N[C@@H](CO)C(=O)N[C@@H](CO)C(=O)N[C@H](C(=O)N[C@@H](CC(N)=O)C(=O)N[C@H](C(=O)NCC(=O)N1CCC[C@H]1C(=O)N[C@@H](CC(N)=O)C(=O)N[C@H](C(=O)N[C@@H](Cc1ccc(O)cc1)C(N)=O)[C@@H](C)O)C(C)C)[C@@H](C)O, also called compound 67) [N^ε1-[(4S)-4-carboxy-4-(19-carboxynonadecanoylamino)butanoyl]-[His14,Arg17,Pro21,Pro27,Pro34]-h-amylin, listing 1 of 2 here]
 |  |  |  | 51.6 | 0.09 | 4.63 | K([γGlu-C20 diacid])CNTATCATQRLAHFLRHSSPNFGAIPSSTNVGPNTY-NH2 (disulfide 2-7; N-terminus assumed; SMILES CC[C@H](C)[C@H](NC(=O)[C@H](C)NC(=O)CNC(=O)[C@H](Cc1ccccc1)NC(=O)[C@H](CC(N)=O)NC(=O)[C@@H]1CCCN1C(=O)[C@H](CO)NC(=O)[C@H](CO)NC(=O)[C@H](Cc1c[nH]cn1)NC(=O)[C@H](CCCNC(=N)N)NC(=O)[C@H](CC(C)C)NC(=O)[C@H](Cc1ccccc1)NC(=O)[C@H](Cc1c[nH]cn1)NC(=O)[C@H](C)NC(=O)[C@H](CC(C)C)NC(=O)[C@H](CCCNC(=N)N)NC(=O)[C@H](CCC(N)=O)NC(=O)[C@@H](NC(=O)[C@H](C)NC(=O)[C@@H]1CSSC[C@H](NC(=O)[C@@H](N)CCCCNC(=O)CC[C@H](NC(=O)CCCCCCCCCCCCCCCCCCC(=O)O)C(=O)O)C(=O)N[C@@H](CC(N)=O)C(=O)N[C@@H]([C@@H](C)O)C(=O)N[C@@H](C)C(=O)N[C@@H]([C@@H](C)O)C(=O)N1)[C@@H](C)O)C(=O)N1CCC[C@H]1C(=O)N[C@@H](CO)C(=O)N[C@@H](CO)C(=O)N[C@H](C(=O)N[C@@H](CC(N)=O)C(=O)N[C@H](C(=O)NCC(=O)N1CCC[C@H]1C(=O)N[C@@H](CC(N)=O)C(=O)N[C@H](C(=O)N[C@@H](Cc1ccc(O)cc1)C(N)=O)[C@@H](C)O)C(C)C)[C@@H](C)O, also called compound 67) [N^ε1-[(4S)-4-carboxy-4-(19-carboxynonadecanoylamino)butanoyl]-[His14,Arg17,Pro21,Pro27,Pro34]-h-amylin, listing 2 of 2 here]
